Biological target: KIF1A-201(1-482)-His (mouse)
Assay: SEC; Superdex 200 Increase 10/300 GL; 250 µg of each protein at about 1.2 µg/µl; 20 mM PIPES-KOH pH 7.0, 150 mM KCl, 1 mM MgCl2, 0.1% Tween 20; size from a calibration curve of globular standards; monomer to dimer

“KIF1A-201(1-482)-His (domain or fragment)” was tested, and the stoichiometry N was 2.
